Assay results published in paper PMC10397247.

Legend:
[1] = biological target: T1, P7A-bP; assay: two-hybrid library CCNG1;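 further: natural log of median RNA to DNA barcode read ratio; higher means stronger binding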
T1 chain: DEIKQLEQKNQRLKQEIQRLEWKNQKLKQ

[2] = biological target: T2, P8A-bP; assay: two-hybrid library CCNG1;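 further: natural log of median RNA to DNA barcode read ratio; higher means stronger binding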
T2 chain: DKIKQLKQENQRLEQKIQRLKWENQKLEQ

[3] = biological target: T3, P9A-bP; assay: two-hybrid library CCNG1;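 further: natural log of median RNA to DNA barcode read ratio; higher means stronger binding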
T3 chain: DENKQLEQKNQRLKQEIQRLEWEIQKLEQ

[4] = biological target: T4, P5SC2; assay: two-hybrid library CC1;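 further: natural log of median RNA to DNA barcode read ratio; higher means stronger binding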
T4 chain: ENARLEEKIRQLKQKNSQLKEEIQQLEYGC

[5] = biological target: T5, P5mS; assay: two-hybrid library CC1; settings: mean of both orientations
T5 chain: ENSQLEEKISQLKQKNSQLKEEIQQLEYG

[6] = biological target: T6, P6SC1; assay: two-hybrid library CC1; settings: mean of both orientations
T6 chain: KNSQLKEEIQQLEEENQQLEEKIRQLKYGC

[7] = biological target: T7, P6SC2; assay: two-hybrid library CC1; settings: mean of both orientations
T7 chain: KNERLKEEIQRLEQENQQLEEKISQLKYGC

[8] = biological target: T8, P6; assay: two-hybrid library CC1; settings: mean of both orientations
T8 chain: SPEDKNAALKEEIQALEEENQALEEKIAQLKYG

[9] = biological target: T9, P6mS; assay: two-hybrid library CC1; settings: mean of both orientations
T9 chain: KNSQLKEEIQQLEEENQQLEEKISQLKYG

[10] = biological target: T10, P7; assay: two-hybrid library CC1; settings: mean of both orientations
T10 chain: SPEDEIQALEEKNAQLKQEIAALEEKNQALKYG

[11] = biological target: T11, P7mS; assay: two-hybrid library CC1; settings: mean of both orientations
T11 chain: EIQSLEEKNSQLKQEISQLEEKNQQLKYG

[12] = biological target: T12, P8; assay: two-hybrid library CC1; settings: mean of both orientations
T12 chain: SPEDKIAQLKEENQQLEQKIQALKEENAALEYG

[13] = biological target: T13, P8mS; assay: two-hybrid library CC1; settings: mean of both orientations
T13 chain: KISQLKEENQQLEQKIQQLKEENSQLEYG

[14] = biological target: T14, P9; assay: two-hybrid library CC1; settings: mean of both orientations
T14 chain: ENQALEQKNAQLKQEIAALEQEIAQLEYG

[15] = biological target: T15, 4H2687-AA; assay: two-hybrid library CCmax
T15 chain: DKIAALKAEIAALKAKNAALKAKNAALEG

[16] = biological target: T16, 4H2705-AA; assay: two-hybrid library CCmax; settings: mean of both orientations
T16 chain: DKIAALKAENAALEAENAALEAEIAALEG

[17] = biological target: T17, 4H2758-AA; assay: two-hybrid library CCmax; settings: mean of both orientations
T17 chain: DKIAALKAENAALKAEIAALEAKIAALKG

[18] = biological target: T18, 4H278-AA; assay: two-hybrid library CCmax; settings: mean of both orientations
T18 chain: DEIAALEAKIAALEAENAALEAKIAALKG

[19] = biological target: T19, 4H2873-AA; assay: two-hybrid library CCmax; settings: mean of both orientations
T19 chain: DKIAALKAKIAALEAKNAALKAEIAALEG

[20] = biological target: T20, 4H2985-AA; assay: two-hybrid library CCmax; settings: mean of both orientations
T20 chain: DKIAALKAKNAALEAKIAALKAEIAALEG

[21] = biological target: T21, 4H3134-AA; assay: two-hybrid library CCmax; settings: mean of both orientations
T21 chain: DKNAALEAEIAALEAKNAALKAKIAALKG

[22] = biological target: T22, 4H3409-AA; assay: two-hybrid library CCmax; settings: mean of both orientations
T22 chain: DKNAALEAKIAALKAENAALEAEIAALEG

[23] = biological target: T23, 4H3625-AA; assay: two-hybrid library CCmax; settings: mean of both orientations
T23 chain: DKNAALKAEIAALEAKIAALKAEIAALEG

[24] = biological target: T24, 4H390-AA; assay: two-hybrid library CCmax; settings: mean of both orientations
T24 chain: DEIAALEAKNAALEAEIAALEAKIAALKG

[25] = biological target: T25, 4H3940-AA; assay: two-hybrid library CCmax; settings: mean of both orientations
T25 chain: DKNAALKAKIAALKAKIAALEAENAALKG

[26] = biological target: T26, 4H510-AA; assay: two-hybrid library CCmax; settings: mean of both orientations
T26 chain: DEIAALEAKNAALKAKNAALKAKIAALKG

[27] = biological target: T27, 4H775-AA; assay: two-hybrid library CCmax; settings: mean of both orientations
T27 chain: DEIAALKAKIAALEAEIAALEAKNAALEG

[28] = biological target: T28, 4H816-AA; assay: two-hybrid library CCmax; settings: mean of both orientations
T28 chain: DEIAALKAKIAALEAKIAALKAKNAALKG

[29] = biological target: T29, 4H87-AA; assay: two-hybrid library CCmax; settings: mean of both orientations
T29 chain: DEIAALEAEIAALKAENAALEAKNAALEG

[30] = biological target: T30, 4H2692-bN; assay: two-hybrid library CCNG1
T30 chain: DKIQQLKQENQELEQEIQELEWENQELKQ

[31] = biological target: T31, 4H2717-bN; assay: two-hybrid library CCNG1
T31 chain: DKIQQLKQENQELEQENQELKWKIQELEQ

[32] = biological target: T32, 4H2839-bN; assay: two-hybrid library CCNG1
T32 chain: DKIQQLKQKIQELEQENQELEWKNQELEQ

[33] = biological target: T33, 4H2915-bN; assay: two-hybrid library CCNG1
T33 chain: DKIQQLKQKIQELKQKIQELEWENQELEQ

[34] = biological target: T34, 4H3057-bN; assay: two-hybrid library CCNG1
T34 chain: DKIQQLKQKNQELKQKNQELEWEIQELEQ

[35] = biological target: T35, 4H319-bN; assay: two-hybrid library CCNG1
T35 chain: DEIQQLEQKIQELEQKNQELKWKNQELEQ

[36] = biological target: T36, 4H3277-bN; assay: two-hybrid library CCNG1
T36 chain: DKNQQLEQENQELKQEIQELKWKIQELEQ

[37] = biological target: T37, 4H348-bN; assay: two-hybrid library CCNG1
T37 chain: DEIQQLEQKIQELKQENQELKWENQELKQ

[38] = biological target: T38, 4H40-bN; assay: two-hybrid library CCNG1
T38 chain: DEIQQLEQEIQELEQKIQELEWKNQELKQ

[39] = biological target: T39, 4H477-bN; assay: two-hybrid library CCNG1
T39 chain: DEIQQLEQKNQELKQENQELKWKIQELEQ

[40] = biological target: T40, 4H492-bN; assay: two-hybrid library CCNG1
T40 chain: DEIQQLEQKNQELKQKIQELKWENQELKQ

[41] = biological target: T41, 4H741-bN; assay: two-hybrid library CCNG1
T41 chain: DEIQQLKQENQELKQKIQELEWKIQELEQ

[42] = biological target: T42, 4H918-bH; assay: two-hybrid library CCNG1
T42 chain: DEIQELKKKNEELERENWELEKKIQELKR

[43] = biological target: T43, 4H2702-bN; assay: two-hybrid library CCNG1
T43 chain: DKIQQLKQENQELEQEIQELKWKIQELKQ

[44] = biological target: T44, 4H3010-bN; assay: two-hybrid library CCNG1
T44 chain: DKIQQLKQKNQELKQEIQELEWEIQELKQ

[45] = biological target: T45, 4H3112-bN; assay: two-hybrid library CCNG1
T45 chain: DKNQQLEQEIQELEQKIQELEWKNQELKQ

[46] = biological target: T46, 4H3427-bN; assay: two-hybrid library CCNG1
T46 chain: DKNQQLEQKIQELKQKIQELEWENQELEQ

[47] = biological target: T47, 4H346-bN; assay: two-hybrid library CCNG1
T47 chain: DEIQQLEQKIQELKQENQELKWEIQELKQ

[48] = biological target: T48, 4H3926-bN; assay: two-hybrid library CCNG1
T48 chain: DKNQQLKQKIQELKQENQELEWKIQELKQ

[49] = biological target: T49, 4H4073-bN; assay: two-hybrid library CCNG1
T49 chain: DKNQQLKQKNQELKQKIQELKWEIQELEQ

[50] = biological target: T50, 4H457-bN; assay: two-hybrid library CCNG1
T50 chain: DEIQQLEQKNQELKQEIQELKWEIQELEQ

[51] = biological target: T51, 4H575-bN; assay: two-hybrid library CCNG1
T51 chain: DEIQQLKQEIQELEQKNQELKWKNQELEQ

[52] = biological target: T52, 4H683-bN; assay: two-hybrid library CCNG1
T52 chain: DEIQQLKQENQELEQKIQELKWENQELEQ

[53] = biological target: T53, 4H754-bN; assay: two-hybrid library CCNG1
T53 chain: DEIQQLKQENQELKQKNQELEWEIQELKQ

[54] = biological target: T54, 4H780-bN; assay: two-hybrid library CCNG1
T54 chain: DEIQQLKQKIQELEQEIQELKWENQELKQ

[55] = biological target: T55, 4H797-bN; assay: two-hybrid library CCNG1
T55 chain: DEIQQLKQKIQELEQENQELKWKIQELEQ

[56] = biological target: T56, 4H855-bN; assay: two-hybrid library CCNG1
T56 chain: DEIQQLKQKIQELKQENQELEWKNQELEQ

[57] = biological target: T57, 4H918-bN; assay: two-hybrid library CCNG1
T57 chain: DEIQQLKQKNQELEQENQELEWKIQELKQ

[58] = biological target: T58, 4H953-bN; assay: two-hybrid library CCNG1
T58 chain: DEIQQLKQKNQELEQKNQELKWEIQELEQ

[59] = biological target: T59, 4H968-bN; assay: two-hybrid library CCNG1
T59 chain: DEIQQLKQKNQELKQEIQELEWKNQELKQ

B1: P7A-bP (peptide)
chain: DEIKQLEQKNQRLKQEIQRLEWKNQKLKQ
interaction score [1]: -1.33 | interaction score [2]: 1.1 | interaction score [3]: -0.571

B2: P5SC2 (peptide)
chain: ENARLEEKIRQLKQKNSQLKEEIQQLEYGC
interaction score [4]: -2.86 | interaction score [5]: -2.94 | interaction score [6]: 0.316 | interaction score [7]: 0.408 | interaction score [8]: 0.225 | interaction score [9]: 0.24 | interaction score [10]: -2.39 | interaction score [11]: -2.77 | interaction score [12]: -1.1 | interaction score [13]: -2.45 | interaction score [14]: -2.39

B3: 4H2687-AA (peptide)
chain: DKIAALKAEIAALKAKNAALKAKNAALEG
interaction score [15]: -0.386 | interaction score [16]: -1.7 | interaction score [17]: -1.78 | interaction score [18]: 1.88 | interaction score [19]: -1.74 | interaction score [20]: -1.59 | interaction score [21]: -1.43 | interaction score [22]: -0.818 | interaction score [23]: -0.539 | interaction score [24]: -1.43 | interaction score [25]: -1.7 | interaction score [26]: -1.76 | interaction score [27]: -0.777 | interaction score [28]: -1.46 | interaction score [29]: 1.53

B4: P8A-bP (peptide)
chain: DKIKQLKQENQRLEQKIQRLKWENQKLEQ
interaction score [2]: -0.396 | interaction score [3]: 0

B5: 4H2692-bN (peptide)
chain: DKIQQLKQENQELEQEIQELEWENQELKQ
interaction score [30]: 0.234 | interaction score [31]: -0.423 | interaction score [32]: -0.832 | interaction score [33]: -0.419 | interaction score [34]: 0.294 | interaction score [35]: -0.482 | interaction score [36]: -0.49 | interaction score [37]: 0.502 | interaction score [38]: -0.333 | interaction score [39]: -0.405 | interaction score [40]: 1.22 | interaction score [41]: -0.795 | interaction score [42]: 1.17

B6: 4H2702-bN (peptide)
chain: DKIQQLKQENQELEQEIQELKWKIQELKQ
interaction score [43]: 1.44 | interaction score [44]: 2.05 | interaction score [45]: -0.298 | interaction score [46]: -0.588 | interaction score [47]: -0.668 | interaction score [48]: 0.223 | interaction score [49]: 2.14 | interaction score [50]: 1.25 | interaction score [51]: -0.212 | interaction score [52]: 0.0387 | interaction score [53]: -1.18 | interaction score [54]: -0.44 | interaction score [55]: 0.189 | interaction score [56]: -1.49 | interaction score [57]: -0.128 | interaction score [58]: -0.0124 | interaction score [59]: 1.31
